Tests used:
[1] = test system: COS-7 cells; assay: Aggregation and cell death of model huntingtin-GFP fusion polypeptides expressed in COS-7 cells; format: cell-based, Primate
Text: In order to determine the effects of intracellular polypeptide aggregation, cells expressing a polypeptide representing normal huntingtin polypeptide as compared to cells expressing a huntingtin polypeptide representing the polypeptide found in patients with Huntington's disease was examined. Primate cells (COS-7) were transfected with plasmid constructs encoding a model huntingtin-GFP fusion polypeptide representing the normal polypeptide or an altered huntingtin polypeptide associated with disease having 47, 72, or 104 glutamine residues. Within 24 h of transfection, a large number of the cells express the huntingtin polypeptide as indicated by the GFP tag fused to each of the test proteins. Observations were recorded at three time points (see Table 4).
Using fluorescence microscopy, it was observed that cells that express the huntingtin-GFP polypeptide with 104 glutamine residues (FIG. 3D) harbor large, brilliant aggregates. […] In cells expressing a model huntingtin polypeptide with fewer glutamine residues (72Q), extremely bright and more variable aggregates are seen, with slightly less cell death. And in cells expressing a model huntingtin polypeptide with 47 glutamine residues, the fluorescence intensity was less and more diffuse.

[2] = test system: cerebellar slices; assay: Aggregation of model huntingtin-GFP polypeptides in biolistically transfected cerebellar slices; format: cell-based, mice (P12 Balb); details: examined after 24 h
Protocol: Organotypic slice cultures are made from P12-P14 cerebellum, cerebral cortex, or striatum, using published methods with minor modifications (1)(14). The brain is dissected from a mouse and placed in a beaker of high magnesium (1.8 mM CaCl2 and 2.4 mM MgCl2) HEPES-buffered Hanks' saline (HBHS) at 4° C. The brain is then blocked and mounted next to a 2% agarose block on a 1-cm^2 piece of Plexiglas (0.3 cm thick) with SuperGlue®. Dental wax mounts the plastic onto the slicing-chamber tissue-holder. After being mounted, the tissue is placed in the slicing chamber of the vibratome. The bath of the vibratome contains cooled high magnesium HBHS at 4° C. Temperature is maintained by a peltier thermoelectric refrigeration system attached to the slicing chamber (FHC, Brunswick, Me.). Three or 400 μm thick sections were sliced from the tissues of interest. As each new slice was made it was placed into growth medium at 4° C. until the collection of slices was complete. Slices from one preparation were then placed in an enclosed filter unit, and incubated at 37° C. for 1 hour in high magnesium artificial cerebral spinal fluid ([…], 0.33 mM KCl, 0.12 mM NaH2PO4, 2.5 mM NaHCO3, 1 mM dextrose, 2.4 mM MgCl2, 1.8 mM CaCl2; all items from Sigma®, St. Louis, Mo.). Solutions were constantly gassed with 95% O2 and 5% CO2. […]

[3] = test system: GST-HD-25Q, GST-HD-42Q; assay: Affinity purification of sFv with GST-fusion antigens (glutathione-Sepharose, SDS-PAGE, immunoblot); format: binding; details: 3 μg sFv with 4 μg antigen, 1 hr room temperature; Coomassie and immunoblot
Protocol: About 3 ug of N-HD-C4 sFv was mixed with 4 ug of either GST-DRPLA-Q35 or GST-HD-Q25 or GST-HD-Q42 in PBS (200 μl final volume) and rocked for 1 h at RT. Twenty microliters of glutathione Sepharose 4B beads (50% slurry, pre-washed with PBS) was added and incubated for another 30 min at RT to capture the sFv/GST fusion protein complexes. The beads were harvested by centrifugation at 12,000×g for 10 sec and washed thrice with 1 ml PBS. The complexes were eluted with 10 μl of 50 mM Tris pH 8.0 containing 10 mM reduced glutathione for 10 min at RT. Tubes were then centrifuged at 12,000×g for 1 min and the supernatants containing the soluble complexes were transferred to new tubes, mixed with an equal volume of 2× SDS-sample buffer and heated at 95° C. before being loaded on SDS-PAGE.
About 3 μg of each clone were incubated in solution for 1 hour at room temperature with 4 ug of either GST-DRPLA-Q35, GST-HD-Q25 or GST-HD-Q42. Then, a 10 μl bed volume of glutathione-Sepharose 4B (Pharmacia) was added to each tube to precipitate the GST-fusion protein/sFv complexes. After 30 min incubation, tubes were centrifuged and the pellets washed 3 times with 1 ml PBS. The complexes were eluted from glutathione-Sepharose beads by addition of 10 mM reduced glutathione to the pellets.
After centrifugation, supernatants containing the eluted complexes were transferred to new tubes and mixed with an equal volume of 2× SDS-loading buffer. The samples were boiled and the proteins separated on a 12% SDS-PAGE. Protein bands were visualized by Coomassie blue staining, and/or transferred to nitrocellulose membranes in order to detect the sFv molecules by immunoblot.
The binding specificities of the selected sFv clones were tested by affinity binding to a full range of antigens, as follows: (a) using sample numbers that correspond to the experimental results in FIGS. 9 and 10, about 3 μg of α-Nt-HD-C4 sFv clone 1 (lanes 2-4) or α-Nt-HD-C4 sFv clone 2 (lanes 5-7) were mixed with 4 μg of the following antigens and incubated in solution for 1 hr at room temperature (lanes 2 and 5) GST-DRPLA-35Q, (lanes 3 and 6) GST-HD-25Q, (4 and 7) GST-HD-42Q; (b) a 10 μl bed volume of glutathione-Sepharose 4B (Pharmacia) was added to each tube to bind all GST-containing protein complexes; the beads were washed with 10 mM glutathione solution, which eluted the GST-antigen or the sFv-antigen complex, and these eluates were analyzed by SDS-PAGE. Protein bands were visualized by Coomassie blue staining (FIG. 9) and were also transferred to nitrocellulose membranes in order to detect the sFv molecules by immunoblot blot (FIG. 10).

[4] = test system: model huntingtin polypeptide (HD-25Q-GFP, pHD-104Q-GFP, HD-Q104-myc, GFP-HD-Q104); assay: Intrabody retargeting of model huntingtin polypeptide in co-transfected COS-7 cells (immunofluorescence); format: cell-based
Protocol: COS 7 cells were grown on cover glass in 6-well plates (10^5 cells/well) and co-transfected at a ratio of 3:1 (sFv to target) with plasmids containing either N-HD-C4 sFv or a negative control sFv (containing an HA tag and SV40 nuclear localization sequence (NLS)) and plasmids containing GFP-targeted fusion proteins using 5 μl SuperFect transfection reagent (QIAGEN). At 24 hours post-transfection, cells were prepared for immunofluorescence as follows: cells were fixed with 4% paraformaldehyde and permeabilized with 0.2% triton-X100. To prevent non-specific binding of secondary antibodies, cells were blocked with 10% normal goat serum in 3% BSA.
The assay is designed such that both the target antigen, i.e., the model huntingtin polypeptide, and the intrabody can be visualized. In particular, the huntingtin polypeptide is visualized by detecting fluorescence emitted by the GFP domain of the huntingtin-GFP fusion polypeptide and the intrabodies tested are visualized using a rhodamine-conjugated antibody that can specifically bind to the intrabody.
The model HD target polypeptide was fused to c-myc (EQKLISEEDL (SEQ ID NO: 45)) epitope tag (HD-Q104-myc). The intrabodies sequences were fused to a HA tag and a SV40 nuclear localization signal (sFv-HA-NLS), so that bound antigens should be retargeted to the cell nuclei. At 48 hours post-transfection, cells were fixed and permeabilized. The HD-Q104-myc proteins were detectable using anti-myc epitope antibodies (i.e., MAb 9E10 IgG), followed by FITC-labeled goat anti-mouse IgG. The sFv-HA-NLS intrabodies were detected by polyclonal rabbit anti-HA IgG followed by rhodamine-conjugated goat anti-rabbit IgG antibodies.
FIGS. 13A-F show stably transfected COS-7 cells expressing α-Nt-HD-C4 sFv-HA-NLS which were further transfected with plasmids encoding either the model altered huntingtin polypeptide with 104 glutamine repeats (FIGS. 13B, D, F) or the model altered DRPLA polypeptide with 81 glutamine repeats (FIGS. 13A, C, E). Both model altered polypeptides were fused to GFP (GFP-HD-Q104 and GFP-DRPLA-Q81, respectively).

B1: 47Q: model huntingtin-GFP fusion polypeptide with 47 glutamine residues; SEQ ID NO: 12 (protein)
chain: MATLEKLMKAFESLKSFQQQQQQQQQQQQQQQQQQQQQQQQQQQQQQQQQQQQQQQQQQQQQQQ
- fluorescence pattern / aggregation / cell death ([1]; 24 h after transfection): diffuse, bright

B2: 104Q: model huntingtin-GFP fusion polypeptide with 104 glutamine residues; SEQ ID NO: 14 (protein)
chain: MATLEKLMKAFESLKSFQQQQQQQQQQQQQQQQQQQQQQQQQQQQQQQQQQQQQQQQQQQQQQQQQQQQQQQQQQQQQQQQQQQQQQQQQQQQQQQQQQQQQQQQQQQQQQQQQQQQQQQQ
- fluorescence pattern / aggregation / cell death ([1]; 72 h after transfection): substantial death
- aggregates in brain tissue [2]: large aggregates

B3: α-Nt-HD-C4 sFv clone 1: subclone 1 of α-Nt-HD-C4 sFv expressed in bacteria and purified on Ni-NTA (protein)
scFv: QVQLQESGGGLVQPGGSLRLSCAASGFTFSSYSMSWVRQAPGKGLEWVAVISYDGSNKYYADSVKGRFTISRDNSKNTLYLQMNSLRAEDTAVYYCARDRYFDLWGRGTLVTVSSGGGGSGGGGSGGGGSQSALTQPASVSGSPGQSITISCTGTSSDIGAYNYVSWYQQYPGKAPKLLIYDVSNRPSGISNRFSGSKSGDTASLTISGLQAEDEADYYCSSFANSGPLFGGGTKVTVL
modifications: left off: small tags and cut ends
notes: subclone 1 of α-Nt-HD-C4 sFv expressed in bacteria and purified on Ni-NTA
- sFv co-purified with antigens containing the Nt-HD sequence [3]: binding only the HD flanking peptide

B4: α-Nt-HD-C4 sFv clone 2: subclone 2 of α-Nt-HD-C4 sFv expressed in bacteria and purified on Ni-NTA (protein)
scFv: QVQLQESGGGLVQPGGSLRLSCAASGFTFSSYSMSWVRQAPGKGLEWVAVISYDGSNKYYADSVKGRFTISRDNSKNTLYLQMNSLRAEDTAVYYCARDRYFDLWGRGTLVTVSSGGGGSGGGGSGGGGSQSALTQPASVSGSPGQSITISCTGTSSDIGAYNYVSWYQQYPGKAPKLLIYDVSNRPSGISNRFSGSKSGDTASLTISGLQAEDEADYYCSSFANSGPLFGGGTKVTVL
modifications: left off: small tags and cut ends
notes: subclone 2 of α-Nt-HD-C4 sFv expressed in bacteria and purified on Ni-NTA
- sFv co-purified with antigens containing the Nt-HD sequence [3]: binding only the HD flanking peptide

B5: 72Q: model huntingtin-GFP fusion polypeptide with 72 glutamine residues; SEQ ID NO: 13 (protein)
chain: MATLEKLMKAFESLKSFQQQQQQQQQQQQQQQQQQQQQQQQQQQQQQQQQQQQQQQQQQQQQQQQQQQQQQQQQQQQQQQQQQQQQQQQ
- aggregates in brain tissue [2]: smaller, more discrete aggregates

B6: α-Nt-HD-C4 sFv-NLS: huntingtin-specific C4 sFv intrabody fused to HA tag and SV40 nuclear localization signal (protein)
scFv: QVQLQESGGGLVQPGGSLRLSCAASGFTFSSYSMSWVRQAPGKGLEWVAVISYDGSNKYYADSVKGRFTISRDNSKNTLYLQMNSLRAEDTAVYYCARDRYFDLWGRGTLVTVSSGGGGSGGGGSGGGGSQSALTQPASVSGSPGQSITISCTGTSSDIGAYNYVSWYQQYPGKAPKLLIYDVSNRPSGISNRFSGSKSGDTASLTISGLQAEDEADYYCSSFANSGPLFGGGTKVTVLYPYDVPDYATPPLLLRLV
- relocation of HD-Q104-myc ([4]; COS-7, 48 hours post-transfection): able to relocate the model altered huntingtin polypeptide HD-Q104-myc from the cytosol to the nucleus
- retargeting of HD-25Q-GFP ([4]; COS-7 co-transfection): can retarget the distribution of huntingtin polypeptide to the nucleus
- colocalization with GFP-HD-Q104 in cell nuclei ([4]; COS-7 stably expressing the intrabody): clearly shows specificity to GFP-HD-Q104
